“Also recorded” adds a separate entry of the source.
Legend:
[1] = format: physicochemical
Procedure: 25× volumes of lysis buffer 25 mM HEPES, 20 mM imidazole, 400 mM sodium chloride, 0.5 mM EDTA, 5% glycerol, 0.01% Tween 20, pH 7.5 were added to E. coli pellets harvested from 25 mL TB culture, and sonicated 5× on ice at 40% output using a probe sonicator. Once lysed, whole cell extracts were clarified at 10K*g and 100 uL of supernatant were aliquoted and subjected to incubations at 50° C., 60° C., 70° C., and 80° C. for 15 minutes, followed by a ten-minute incubation on ice. Thermally precipitated proteins were removed at 10K*g for five minutes, and soluble extract fractions were combined directly with Laemmli sample buffer, denatured, and run on 4-20% SDS-PAGE to evaluate yield and stability.

Human VEGF 165 [2] = target: T1, Human VEGF 165 (human, UniProt P15692-4 27-191); test: BLI; KD after 4 days at 37 °C against KD at t = 0
T1 construct: Loaded on the BLI probe as the ligand; also called BLI ligand Human VEGF 165 (Avi tag, R&D Systems AVI-293-050); not shown: Avi tag

Human VEGF 165 [3] = target: T1, Human VEGF 165; test: BLI, VEGF 165 on probe; sample aged 4 days at 37 °C
Human VEGF 165 [4] = target: T1, Human VEGF 165; test: BLI; KD after 11 days at 37 °C against KD at t = 0
Human VEGF 165 [5] = target: T1, Human VEGF 165; test: BLI, VEGF 165 on probe, t = 0 (repeats Table 15); limit of detection
Human VEGF 165 [6] = target: T1, Human VEGF 165; test: BLI, VEGF 165 on probe; sample aged 11 days at 37 °C
Human VEGF 165 [7] = target: T1, Human VEGF 165; test: BLI, VEGF 165 on probe, conjugate as analyte, t = 0; value is the limit of detection
Human VEGF 165 [8] = target: T2, Human VEGF 165 (Homo sapiens, UniProt P15692); test: Accelerated 37° C. stability study, VEGF binding by BLI over time; settings: DARPin MVPs, aging 28 and 32 days at 37° C., compared with Conjugate 2
T2 construct: Avi; purchased R&D Systems AVI-293-050
T2 sequence (P15692 27-191 isoform P15692-4): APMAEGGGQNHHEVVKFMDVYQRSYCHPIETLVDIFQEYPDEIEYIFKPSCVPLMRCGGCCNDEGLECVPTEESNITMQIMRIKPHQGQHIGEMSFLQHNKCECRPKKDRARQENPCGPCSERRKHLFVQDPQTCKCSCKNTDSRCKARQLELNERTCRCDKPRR
Procedure: MVP stability was assessed by setting up a long term accelerated […] stability by maintaining the MVPs at 37° C. at 5-10X the therapeutic concentration in pH 7.3 vitreous mimetic buffer (Table 19) or pH 7.4 PBS 0.01% tween 20. MVP stability was assessed using SEC MALS or SEC, DLS, and/or BLI analysis of samples removed after various times.
Long-term 37° C. stability studies were set up to assess composition impact on MVP stability. MVPs were synthesized under sterile conditions and diluted to around 0.4 mg/mL in a sterile filtered human vitreous mimetic buffer. This concentration is 5X higher than intravitreal therapeutic concentration of our predicted clinical dose. […] At discrete timepoints, one aliquot from each sample was removed from the plate under sterile conditions and analyzed. […] Then, the protein concentration is measured to adjust for any differences in volume that may have occurred. The binding affinity to is measured using BLI. […] To monitor changes in radius over time, the samples are spun for 5 minutes at 5000 g to remove any large aggregates or dust particles and the Rh is measured using DLS without any sample dilution.
The change in binding affinity over time using biolayer interferometry (BLI) was also determined. […] Analytes were prepared at the top concentration determined in pilot reactions in BLI buffer and serially diluted 1:3 two to five more times using BLI buffer. […]

[9] = SEC analysis of MVP stability samples aged at 37° C.; format: physicochemical; settings: anti-VEGF DARPin MVPs stored up to 71 days at 37° C., compared with Conjugate 2
Procedure: Stability study samples were analyzed using HPLC size exclusion chromatography (SEC). This method was also used to analyze MVP formation and percent unreacted protein after purification. To assess stability via SEC, MVP was filtered to remove particles and analyzed using a Shodex 1 MDa Ohpak LB-804, Shodex KW-404 or 405, or Phenomenex PolySep6000 column with DPBS or appropriate solvent as the mobile phase to get baseline trace at 280 nm, 230 nm, etc. After various time points samples were removed and analyzed using the same SEC method. Increases in retention time and peak width relative to the baseline sample indicated degradation. In addition, decreases in MVP peak area and/or increases in monomer and dimer protein species peak area also indicate MVP degradation. Percent conjugate loss was quantified by comparing peak area differences with time. In the future, the SEC stability analysis will be coupled with MALS to quantify molecular weight and valency changes of the conjugate with age at different temperatures. […]
Stability study samples were also analyzed by coupling SEC with MALS analysis for determination of MVP radius of gyration (Rg,z) and molecular weight at different time points after aging at 37° C. […] System-specific calibration numbers, normalization coefficients, delay volumes, and band broadening terms were determined for the system prior to analysis. […]

B1: aTNFaMu_3MUT: anti-TNFα single domain antibody (mouse), aTNFaMu with three point mutations, SEQ ID NO: 72 (protein)
VHH: QVQLQESGGGLVQAGGSLRLSCAASGGTFSSIIMAWFRQAPGKEREFVGAVSWSGGTTVYADSVKGRFTISRDSARKSVYLQMNSLKPEDTAVYYCAARPYQKYNWASASYNVWGQGTQVTVSS
modifications: aTNF-a mu 3MUT
Which “thermal stability of the protein in E. coli cell extracts” value [1] does the source give for B1 here?
The value was “about 70 °C”.

B2: Conjugate 16 (anti-VEGF VHH SEQ ID NO: 91 with aH linker SEQ ID NO: 21 on hyaluronic acid, intermediate 2-6) (VHH)
VHH: DVQLVESGGGLVQPGGSLRLSCAASGRTFSSYSMGWFRQAPGKEREFVVAISKGGYKYDAVSLEGRFTISRDNAKNTVYLQINSLRPEDTAVYYCASSRAYGSSRLRLADTYEYWGQGTLVTVSS
modifications: C-terminal Cys of the peptide linker bound by its thiol to the maleimide of the organic linker MP2H on hyaluronic acid (830 kDa)
notes: Multivalent peptide-hyaluronic acid conjugate (MVP); peptide valency 101; Method 2 intermediate; also called BI VHH anti-VEGF MVP
What does the source list for B2?
Change in KD to t = 0 (Human VEGF 165 [2]): 654 fold; Kd (Human VEGF 165 [3]): 0.654 nM; Change in KD to t = 0 (Human VEGF 165 [4]): 648 fold; Kd (Human VEGF 165 [5]): < 0.001 nM; Kd (Human VEGF 165 [6]): 0.648 nM; Kd (Human VEGF 165 [7]): < 0.001 nM

B3: Conjugate 1: HA conjugate of anti-VEGF DARPin peptide SEQ ID NO: 92, made from Method 5 intermediate 5-4 (MP2H) (conjugate)
chain: GSDLDKKLLEAARAGQDDEVRILMANGADVNARDSTGWTPLHLAAPWGHPEIVEVLLKNGADVNAADFQGWTPLHLAAAVGHLEIVEVLLKYGADVNAQDKFGKTAFDISIDNGNEDLAEILQKAAGGGSGGGS
modifications: hyaluronic acid conjugate; anti-VEGF DARPIN
For B3, which “association constant (Kon) initially and with aging” value (Human VEGF 165 [8]) is on record?
The value was “lower Kon and slower association initially and with aging”.

And the “SEC retention time / radius change with aging” value [9]?
Its value is “much larger increase in retention time and contraction of radius; also recorded: larger losses in radius with aging”.
